In patent publication US20240158537A1 (BRIGHT PEAK THERAPEUTICS, published 2024):

Key:
[1] = target: T1, Biotinylated Recombinant Human PD-1 (CD279)-Fc Chimera (carrier-free), Biolegend #789406 (human, UniProt Q15116 25-167, biotinylated (site not stated)); test: ELISA (OD 450 nm): antibody coated on the plate, biotinylated human PD-1-Fc titrated, streptavidin-HRP detection; x axis 'Molecule (nM)'; EC50 table beside the plot
T1 construct: Bought reagent; also called h-PD1 Fc; Fc part of the bought chimera not given
T1 sequence (Q15116 25-167, change not shown): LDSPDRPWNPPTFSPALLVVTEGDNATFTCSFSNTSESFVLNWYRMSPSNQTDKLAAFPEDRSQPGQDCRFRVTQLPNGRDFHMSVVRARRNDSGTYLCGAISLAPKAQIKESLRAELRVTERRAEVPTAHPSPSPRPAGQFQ

[2] = target: T1, Biotinylated Recombinant Human PD-1 …; test: ELISA (OD 450 nm): immunocytokine coated on the plate, biotinylated human PD-1-Fc titrated, streptavidin-HRP detection; x axis 'Molecule (nM)'; EC50 table beside the plot
Protocol: Each of these variant conjugates and unmodified antibodies were assayed by ELISA for their ability to bind to human PD-1 according to the following protocol.
Streptavidin-HRP was Sigma #RABHRP3. TMB solution was 3,3′,5,5′-Tetramethylbenzidine (Sigma T0440). Stop solution was Sigma #CL07STOP solution (0.5M H2SO4). Buffers were: Coating buffer was PBS. Wash buffer was PBS-0.02% Tween20. Blocking buffer was PBS-0.02% Tween20 1% BSA. Protein diluent was PBS-0.02% Tween20 0.1% BSA. STOP solution was 0.5M H2SO4. […] The ELISA plates were washed 4 times with 100 μl PBS—0.02% Tween20. and blocked with PBS—1% BSA. A serial dilution of h-PD1 Fc was prepared and plates were incubated for two hours at 37° C., with shaking (600 rpm). ELISA plates were washed and incubated with Streptavidin-HRP 30 min at RT, with shaking (600 rpm). ELISA plates were washed and incubated with ready-to-use TMB solution. Reaction was stopped and plates were read by OD450 on an Enspire plate reader.

| Binder | EC50 [1] [pM] | EC50 [2] [pM] |
| --- | --- | --- |
| LZM-009 (unmodified anti-PD-1 antibody, SEQ ID NOs: 76-77) (antibody, V domains shown, It was tested as a full antibody with an Fc region (K248, Eu numbering); also called parental antibody) VH: QVQLVQSGAEVKKPGASVKVSCKASGYTFTSYYMYWVRQAPGQGLEWMGGVNPSNGGTNFNEKFKSRVTITADKSTSTAYMELSSLRSEDTAVYYCARRDYRYDMGFDYWGQGTTVTVSS VL: EIVLTQSPATLSLSPGERATISCRASKGVSTSGYSYLHWYQQKPGQAPRLLIYLASYLESGVPARFSGSGSGTDFTLTISSLEPEDFATYYCQHSRELPLTFGTGTKVEIK | 35 |  |
| Composition C (LZM-009-IL-7 conjugate, DAR 1) (other, not fully specified; Nle at 17, 27, 54, 69, 147; Hse at 36, 76, 114; N-terminal amine carries the glutaryl-PEG-azide handle of Composition AA, joined by a chemical linker to K248 of the antibody heavy chain; K248 (Eu numbering) of the Fc region, whose sequence is not given, carries a DBCO linker reacted with the azide of Composition AA (triazole); drug-antibody ratio 1, Chemical conjugate; also called immunocytokine Composition C) VH: QVQLVQSGAEVKKPGASVKVSCKASGYTFTSYYMYWVRQAPGQGLEWMGGVNPSNGGTNFNEKFKSRVTITADKSTSTAYMELSSLRSEDTAVYYCARRDYRYDMGFDYWGQGTTVTVSS VL: EIVLTQSPATLSLSPGERATISCRASKGVSTSGYSYLHWYQQKPGQAPRLLIYLASYLESGVPARFSGSGSGTDFTLTISSLEPEDFATYYCQHSRELPLTFGTGTKVEIK DCDIEGKDGKQYESVLXVSIDQLLDSXKEIGSNCLXNEFNFFKRHICDANKEGXFLFRAARKLRQFLKXNSTGDFXLHLLKVSEGTTILLNCTGQVKGRKPAALGEAQPTKSLXENKSLKEQKKLNDLCFLKRLLQEIKTCWNKILXGTKEH |  | 34.8 |
